Assay results reported in patent US20240343800A1 (Merck KGaA, published 2024).

Tests used:
[1] = biological target: T1, human ROR1 (on cells) (human, UniProt Q01973 30-937); assay: cell-based or functional assay
[2] = biological target: T1, human ROR1 (on cells); assay: cell-based or functional assay; remark: listed apart in the source
[3] = biological target: T1, human ROR1 (on cells); assay: cell-based or functional assay; remark: listed apart in the source
[4] = biological target: T1, human ROR1 (on cells); assay: cell-based or functional assay; remark: listed apart in the source
[5] = biological target: T1, human ROR1 (on cells); assay: cell-based or functional assay; remark: listed apart in the source
[6] = biological target: T1, human ROR1 (on cells); assay: cell-based or functional assay; remark: listed apart in the source
[7] = biological target: T1, human ROR1 (on cells); assay: cell-based or functional assay; remark: listed apart in the source
[8] = biological target: T2, mouse ROR1 (on 4T1 cells engineered to overexpress it) (mouse, UniProt Q9Z139 30-937); assay: cell-based or functional assay
[9] = biological target: T1, human ROR1 (on cells); assay: cell-based or functional assay; remark: listed apart in the source
[10] = biological target: T2, mouse ROR1 (on 4T1 cells engineered to …); assay: cell-based or functional assay; remark: listed apart in the source
[11] = biological target: T3, human CD3 (on Jurkat T cells or human CD8+ T cells) (human, UniProt P07766 23-207; P09693 23-182; P04234 22-171; P20963 22-164); assay: flow cytometry, Jurkat T cells
T3 construct: Entries are printed with signal peptides; also called huCD3; CD3ε
T3 sequence (P07766 23-207 limits assumed, chain 1 of 4): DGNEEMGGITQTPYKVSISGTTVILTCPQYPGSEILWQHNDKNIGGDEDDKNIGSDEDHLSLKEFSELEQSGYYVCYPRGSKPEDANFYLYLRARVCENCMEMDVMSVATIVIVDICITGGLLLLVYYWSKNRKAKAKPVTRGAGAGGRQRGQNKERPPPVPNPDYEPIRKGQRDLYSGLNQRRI
T3 sequence (P09693 23-182 limits assumed, chain 2 of 4): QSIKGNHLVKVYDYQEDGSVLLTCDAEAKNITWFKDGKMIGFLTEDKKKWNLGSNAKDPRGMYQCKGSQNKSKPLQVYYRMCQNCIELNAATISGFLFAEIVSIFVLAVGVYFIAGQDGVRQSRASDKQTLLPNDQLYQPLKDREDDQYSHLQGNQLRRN
T3 sequence (P04234 22-171 limits assumed, chain 3 of 4): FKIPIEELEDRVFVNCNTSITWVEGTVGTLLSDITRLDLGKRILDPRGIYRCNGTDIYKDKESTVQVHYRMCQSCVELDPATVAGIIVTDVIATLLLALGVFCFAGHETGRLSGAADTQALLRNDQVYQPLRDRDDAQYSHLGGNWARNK
T3 sequence (P20963 22-164 limits assumed, chain 4 of 4): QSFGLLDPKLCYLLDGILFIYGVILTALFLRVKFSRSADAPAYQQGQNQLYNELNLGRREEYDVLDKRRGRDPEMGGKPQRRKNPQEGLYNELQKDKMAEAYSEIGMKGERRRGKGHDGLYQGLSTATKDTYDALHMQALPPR
Procedure: (§1) After washing twice with 200 μL of phosphate buffered saline (PBS) by centrifugation at 500×g for 5 minutes at room temperature, the cells were resuspended in 100 μL of Live/Dead fixable green working buffer (ThermoFisher Scientific, Cat No: L23101; one vial of Live/Dead fixable green powder was dissolved into 50 μL of DMSO and 1 μL of dissolved Live/Dead fixable green was added to 1 mL of PBS to prepare the working buffer). After 15-minutes of incubation at room temperature, the cells were washed twice with 200 μL of PBS by centrifugation at 500×g for 5 minutes at room temperature and resuspended in […] of 10% goat serum in BD staining buffer (BD Biosciences, Cat No: 554657). […] The plates were then covered with foil to avoid direct light and incubated for 60 minutes at 4° C. […] After incubating for 30 minutes at 4° C., the cells were washed twice with 200 μL of PBS by centrifugation at 500×g for 5 minutes at room temperature and resuspended into 100 μL of fixation buffer (BioLegend, Cat No: 420801). The samples were then analyzed on a flow cytometer for binding signal using FlowJo software. ROR and CD3 binding EC₅₀s (concentration vs mean fluorescence intensity (MFI)) for reference molecules and test bispecific TCEs were obtained using 4-parameter non-linear regression curve fitting in GraphPad Prism.

[12] = biological target: T1, human ROR1 (on cells); assay: flow cytometry, MDA-MB-231 cells
Procedure: as §1

[13] = biological target: T4, cynomolgus CD3 (on cynomolgus pan-T cells) (cynomolgus, UniProt Q95LI5 22-198); assay: flow cytometry, cynomolgus pan-T cells
T4 construct: whole, on cells
T4 sequence (Q95LI5 22-198): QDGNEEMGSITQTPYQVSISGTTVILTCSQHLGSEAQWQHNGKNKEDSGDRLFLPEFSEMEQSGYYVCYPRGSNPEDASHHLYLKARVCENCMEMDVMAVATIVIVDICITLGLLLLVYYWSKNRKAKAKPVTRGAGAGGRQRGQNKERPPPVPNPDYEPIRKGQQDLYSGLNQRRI
Procedure: as §1

[14] = biological target: T1, human ROR1 (on cells); assay: flow cytometry, 4T1 cells overexpressing human ROR1
[15] = biological target: T2, mouse ROR1 (on 4T1 cells engineered to …); assay: flow cytometry, 4T1 cells overexpressing mouse ROR1
[16] = biological target: T3, human CD3 (on Jurkat T cells or human …); assay: flow cytometry, human CD8+ T cells
Procedure: as §1, with “After” for “After washing twice with 200 μL of phosphate buffered saline (PBS) by centrifugation at 500×g for 5 minutes at room temperature, the cells were resuspended in 100 μL of Live/Dead fixable green working buffer (ThermoFisher Scientific, Cat No: L23101; one vial of Live/Dead fixable green powder was dissolved into 50 μL of DMSO and 1 μL of dissolved Live/Dead fixable green was added to 1 mL of PBS to prepare the working buffer). After”

[17] = biological target: T5, chimeric CD3ε of human CD3 knock-in C57BL/6 mice (ectodomain of human CD3, transmembrane and cytosolic … (human; mouse, UniProt P07766 23-126; P22646 109-189); assay: flow cytometry, T cells of huCD3 knock-in C57BL/6 mice
T5 construct: extracellular domain;domain: transmembrane and cytosolic domains; On T cells isolated from the knock-in mice; also called human/mouse chimeric CD3; huCD3 knock-in
T5 sequence (P07766 other isoform, or with tags, fused parts or gaps mutant): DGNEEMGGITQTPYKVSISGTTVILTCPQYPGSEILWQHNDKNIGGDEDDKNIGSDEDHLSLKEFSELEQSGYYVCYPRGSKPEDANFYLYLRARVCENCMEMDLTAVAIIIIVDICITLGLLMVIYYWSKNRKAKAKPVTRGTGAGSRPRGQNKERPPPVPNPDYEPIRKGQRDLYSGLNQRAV
Procedure: (§2) The plates were then covered with foil to avoid direct light and incubated for 60 minutes at 4° C. […] After incubating for 30 minutes at 4° C., the cells were washed twice with 200 μL of PBS by centrifugation at 500×g for 5 minutes at room temperature and resuspended into 100 μL of fixation buffer (BioLegend, Cat No: 420801). The samples were then analyzed on a flow cytometer for binding signal using FlowJo software. ROR and CD3 binding EC₅₀s (concentration vs mean fluorescence intensity (MFI)) for reference molecules and test bispecific TCEs were obtained using 4-parameter non-linear regression curve fitting in GraphPad Prism.

[18] = biological target: T3, human CD3 (on Jurkat T cells or human …); assay: flow cytometry; reference: 69A02 and 82H02 TCEs in Format 1A
Procedure: as §2

[19] = biological target: T3, human CD3 (on Jurkat T cells or human …); assay: flow cytometry; reference: 69A02 and 82H02 TCEs in Format 1B
Procedure: as §2

[20] = biological target: T3, human CD3 (on Jurkat T cells or human …); assay: flow cytometry, human CD8+ T cells; reference: 82H02 TCE #1 and #3
Procedure: as §2, with “After 15-minutes of incubation at room temperature, the cells were washed twice with 200 μL of PBS by centrifugation at 500×g for 5 minutes at room temperature and resuspended in […] of 10% goat serum in BD staining buffer (BD Biosciences, Cat No: 554657). […] The plates” for “The plates”

B1: bispecific TCE 82H02 in Format 1B (bispecific antibody)
chain 1: EIVLTQSPATLSLSPGERATLSCRASQSVSSYLAWYQQKPGQAPRLLIYDASNRATGIPARFSGSGSGTDFTLTISSLEPEDFAVYYCQQRSNWPPCTFGQGTRLEIKGGGGSGGGGSGGGGSGGGGSEVQLLESGGGLVQPGGSLRLSCAASGFTFTSYAMSWVRQAPGKGLEWVSTISGSGGGTYYTDSVKGRFTISRDNSKNTLYLQMNSLRAEDTAVYYCAQGSSIFDYWGQGTLVTVSSEPKSSDKTHTCPPCPAPEAAGGPSVFLFPPKPKDTLMISRTPEVTCVVVDVSHEDPEVKFNWYVDGVEVHNAKTKPREEQYNSTYRVVSVLTVLHQDWLNGKEYKCKVSNKALGAPIEKTISKAKGQPFRPEVHLLPPSREEMTKNQVSLTCLARGFYPKDIAVEWESNGQPENNYKTTPSRQEPSQGTTTFAVTSKLTVDKSRWQQGNVFSCSVMHEALHNHYTQKTISLSPGKGGGGSGGGGSGGGGSGGGGSEVQLVESGGGLVQPGGSLRLSCAASGFTFNTYAMNWVRQAPGKGLEWVARIRSKYNNYATYYADSVKDRFTISRDDSKNTLYLQMNSLRAEDTAVYYCVRHGNFGNSYVSWFAYWGQGTMVTVSSASTKGPSVFPLAPSSKSTSGGTAALGCLVKDYFPEPVTVSWNSGALTSGVHTFPAVLQSSGLYSLSSVVTVPSSSLGTQTYICNVNHKPSNTKVDKKVEPKSC
chain 2: EIVLTQSPATLSLSPGERATLSCRASQSVSSYLAWYQQKPGQAPRLLIYDASNRATGIPARFSGSGSGTDFTLTISSLEPEDFAVYYCQQRSNWPPCTFGQGTRLEIKGGGGSGGGGSGGGGSGGGGSEVQLLESGGGLVQPGGSLRLSCAASGFTFTSYAMSWVRQAPGKGLEWVSTISGSGGGTYYTDSVKGRFTISRDNSKNTLYLQMNSLRAEDTAVYYCAQGSSIFDYWGQGTLVTVSSEPKSSDKTHTCPPCPAPEAAGGPSVFLFPPKPKDTLMISRTPEVTCVVVDVSHEDPEVKFNWYVDGVEVHNAKTKPREEQYNSTYRVVSVLTVLHQDWLNGKEYKCKVSNKALGAPIEKTISKAKGQPREPQVYTLPPPSEELALNELVTLTCLVKGFYPSDIAVEWLQGSQELPREKYLTWAPVLDSDGSFFLYSILRVAAEDWKKGDTFSCSVMHEALHNHYTQKSLDRSPGK
chain 3: QAVVTQEPSLTVSPGGTVTLTCRSSTGAVTTSNYANWVQQKPGQAPRGLIGGTNKRAPGTPARFSGSLLGGKAALTLSGVQPEDEAEYYCALWYSNLWVFGGGTKLTVLGQPKAAPSVTLFPPSSEELQANKATLVCLISDFYPGAVTVAWKADSSPVKAGVETTTPSKQSNNKYAASSYLSLTPEQWKSHRSYSCQVTHEGSTVEKTVAPTECS
- EC50 of target cell killing (TDCC), human CD8+ T cells + ROR1+ MDA-MB-231 [1]: 0.0581 nM
- EC50 of IFNγ release, human CD8+ T cells + ROR1+ MDA-MB-231 [2]: 0.0889 nM
- TDCC EC50, cynomolgus CD8+ T cells + ROR1+ MDA-MB-231 [3]: 0.0548 nM
- TDCC EC50, human CD8+ T cells + ROR1+ MDA-MB-231 [3]: 0.0237 nM
- IFNγ release EC50, cynomolgus CD8+ T cells + ROR1+ MDA-MB-231 [4]: 0.191 nM
- IFNγ release EC50, human CD8+ T cells + ROR1+ MDA-MB-231 [4]: 0.104 nM
- TDCC EC50, PBMCs + ROR1+ MDA-MB-231 cells [5]: 0.0766 nM
- IFNγ release EC50, PBMCs + ROR1+ MDA-MB-231 cells [6]: 7.12 nM
- TDCC EC50, hCD3 KI splenocytes: hROR1+ 4T1 cells [7]: 0.185 nM
- TDCC EC50, hCD3 KI splenocytes: mROR1+ 4T1 cells [8]: 0.0215 nM
- IFNγ release EC50, hCD3 KI splenocytes: hROR1+ 4T1 cells [9]: > 0.3 nM
- IFNγ release EC50, hCD3 KI splenocytes: mROR1+ 4T1 cells [10]: 0.14 nM
- EC50 [11]: 67.3 nM
- EC50 [12]: 2.23 nM
- EC50 [13]: 34.9 nM
- EC50 [14]: 0.7 nM
- EC50 [15]: 2.01 nM

B2: bispecific reference T cell-binder (bispecific antibody)
light: ELVLTQSPSVSAALGSPAKITCTLSSAHKTDTIDWYQQLQGEAPRYLMQVQSDGSYTKRPGVPDRFSGSSSGADRYLIIPSVQADDEADYYCGADYIGGYVFGGGTQLTVLGQPKAAPSVTLFPPSSEELQANKATLVCLISDFYPGAVTVAWKADSSPVKAGVETTTPSKQSNNKYAASSYLSLTPEQWKSHKSYSCQVTHEGSTVEKTVAPTECS
heavy 1: not shown
heavy 2: QEQLVESGGRLVTPGGSLTLSCKASGFDFSAYYMSWVRQAPGKGLEWIATIYPSSGKTYYATWVNGRFTISSDNAQNTVDLQMNSLTAADRATYFCARDSYADDGALFNIWGPGTLVTISSASTKGPSVFPLAPSSKSTSGGTAALGCLVKDYFPEPVTVSWNSGALTSGVHTFPAVLQSSGLYSLSSVVTVPSSSLGTQTYICNVNHKPSNTKVDKKVEPKSCDKTHTCPPCPAPEAAGGPSVFLFPPKPKDTLMISRTPEVTCVVVDVSHEDPEVKFNWYVDGVEVHNAKTKPREEQYNSTYRVVSVLTVLHQDWLNGKEYKCKVSNKALGAPIEKTISKAKGQPREPQVCTLPPSRDELTKNQVSLSCAVKGFYPSDIAVEWESNGQPENNYKTTPPVLDSDGSFFLVSKLTVDKSRWQQGNVFSCSVMHEALHNHYTQKSLSLSPGK
chain: QAVVTQEPSLTVSPGGTVTLTCGSSTGAVTTSNYANWVQEKPGQAFRGLIGGTNKRAPGTPARFSGSLLGGKAALTLSGAQPEDEAEYYCALWYSNLWVFGGGTKLTVLSSASTKGPSVFPLAPSSKSTSGGTAALGCLVKDYFPEPVTVSWNSGALTSGVHTFPAVLQSSGLYSLSSVVTVPSSSLGTQTYICNVNHKPSNTKVDKKVEPKSC
notes: ROR1 x CD3 bispecific of four polypeptides
- EC50 [11]: 157 nM
- EC50 [16]: 266 nM
- EC50 [17]: 259 nM
- fold lower apparent binding affinity [18]: ~15 fold
- fold lower apparent binding affinity [19]: ~4 fold
- fold lower affinity [20]: ~100 fold
